Experiment [1] addresses T1, human hepatocyte growth factor (HGF) (human, UniProt P14210 32-728). The experiment is described as follows: cell-based or functional assay.
Experiment [2] addresses T1, human hepatocyte growth factor (HGF). Put plainly: BIAcore 3000, kinetic method: antibody captured on immobilized Protein G, human HGF (0-100 nM) injected. An excerpt:
The running buffer for those analyses was PBS with 0.005% P20 surfactant (BIAcore, Inc. Piscataway, N.J.). Recombinant Protein G (Pierce, Rockford, Ill.) was immobilized to a research grade CM5 sensor chip (Biacore, Inc. Piscataway, N.J.) via primary amine groups using the Amine Coupling Kit (Biacore, Inc. Piscataway, N.J.), according to the manufacturer's instructions.
In six separate samples, about 200 resonance units (RU) of each of the six antibodies to HGF was separately attached to immobilized Protein G following the manufacturer's instructions. Samples comprising various concentrations (0-100 nM) of human HGF were injected over the bound antibody surface at a flow rate of 50 μl/min for 3 minutes. Antibody binding kinetic parameters including kₐ (association rate constant), kd (dissociation rate constant), and KD (dissociation equilibrium constant) were determined using the BIA evaluation 3.1 computer program (BIAcore, Inc. Piscataway, N.J.). Lower dissociation equilibrium constants indicate greater affinity of the antibody for HGF.
On the technique in general: In SPR one partner is held on a chip, and binding of the other changes the refractive index at the surface.

For experiment [3] the target is unchanged. The experiment is described as follows: BIAcore 3000, equilibrium/solution method: antibody (0.01-50 nM) incubated with human HGF (0.05 nM and 1 nM), free HGF measured on a chip carrying the same antibody. On the procedure: That method was performed with a BIAcore®3000 (Biacore, Inc., Piscataway, N.J.) using PBS with 0.005% P20 surfactant (BIAcore, Inc. Piscataway, N.J.) as running buffer. The four antibodies to HGF were separately immobilized to research grade CM5 sensor chips (Biacore, Inc. Piscataway, N.J.) via primary amine groups using an Amine Coupling Kit (Biacore, Inc. Piscataway, N.J.) following the manufacturer's instructions.
In separate assays, each of the four antibodies to HGF, over a range of concentrations (from 0.01 nM to 50 nM) was separately incubated with each of two different concentrations (0.05 nM and 1 nM) of human HGF in PBS with 0.005% P-20 and 0.1 mg/mL BSA at room temperature for at least six hours. Each of those samples was then injected over a surface of a CM5 sensor chip onto which the same antibody to HGF had been immobilized. The binding signal obtained was proportional to the free HGF in solution. The dissociation equilibrium constant (KD) was obtained from nonlinear regression analysis of the competition curves using a dual-curve one-site homogeneous binding model (KinExA software, Sapidyne Instruments Inc., Boise Id.).

For experiment [4], the target named is T2, mouse HGF (mouse, UniProt Q08048 33-728).
T2 construct: also called recombinant mouse HGF; mHGF
T2 sequence (Q08048 33-728 limits assumed): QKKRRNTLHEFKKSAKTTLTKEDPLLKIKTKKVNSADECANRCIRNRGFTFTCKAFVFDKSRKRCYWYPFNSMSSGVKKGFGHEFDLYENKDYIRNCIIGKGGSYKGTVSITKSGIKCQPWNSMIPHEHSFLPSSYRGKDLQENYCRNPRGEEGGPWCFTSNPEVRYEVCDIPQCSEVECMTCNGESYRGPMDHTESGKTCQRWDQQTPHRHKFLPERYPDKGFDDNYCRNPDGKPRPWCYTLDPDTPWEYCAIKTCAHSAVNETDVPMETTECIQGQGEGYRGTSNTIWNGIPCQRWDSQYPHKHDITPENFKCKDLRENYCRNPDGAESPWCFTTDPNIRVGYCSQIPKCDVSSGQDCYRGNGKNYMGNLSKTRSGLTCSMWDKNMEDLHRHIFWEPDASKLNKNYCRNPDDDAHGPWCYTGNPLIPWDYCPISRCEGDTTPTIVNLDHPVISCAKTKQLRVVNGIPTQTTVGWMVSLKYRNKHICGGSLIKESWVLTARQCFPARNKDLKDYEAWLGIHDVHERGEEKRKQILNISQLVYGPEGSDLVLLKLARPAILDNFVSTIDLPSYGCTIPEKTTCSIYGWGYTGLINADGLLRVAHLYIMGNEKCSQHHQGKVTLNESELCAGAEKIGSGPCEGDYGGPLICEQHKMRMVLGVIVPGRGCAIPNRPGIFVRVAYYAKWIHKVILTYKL
Put plainly: FACS bead assay: antibody incubated with the avidin fusion of mouse HGF, captured on biotin-coated beads; FITC anti-avidin (x) against PE goat anti-human F(ab')2 (y). On the procedure: After incubation, the fusion proteins in each sample were separately captured using biotin-coated beads (Spherotech Inc., Libertyville, Ill., Cat # TP-60-5). The resulting bead-protein complexes were labeled by adding FITC labeled anti-avidin antibody (Vector Lab, Burlingame, Calif., Cat. # SP-2040). The presence of antibodies to HGF was determined by adding phycoerythrin (PE) labeled goat anti-human F(ab′)2 antibody (Southern Biotech Associates, Inc, Birmingham, Ala., Cat #2043-09).
Those samples were then subjected to Fluorescence Activated Cell Sorter (FACS) analysis. Bead complexes labeled by FITC (which indicated the presence of avidin) and/or PE (which indicated the presence of antibody to HGF) were detected on a Becton Dickinson Bioscience FACScan (BD, Franklin Lakes, N.J.).

For experiment [5], the target named is T1, human hepatocyte growth factor (HGF). Put plainly: neutralization ELISA (left table): inhibition of the binding of soluble Met (2 nM) to plate-coated HGF, detected with biotinylated anti-cMetR antibody and Eu-streptavidin; column head 'IC50 IP (nM)'. On the procedure:
(§1) A neutralization ELISA assay was developed to assess whether the antibodies discussed in Example 6 could interrupt Met-HGF binding. Delphia 96-well plates (Cat#: AAAND-0001, Wallac Inc., Gaithersburg, Md.) were coated with HGF by adding 100 μl of HGF at 6.25 μg/ml per well. The plates were incubated at 37° C. for 1 hour or at 4° C. overnight. The plates were then blocked with 5% BSA (Cat#50-61-00, KPL, Gaithersburg, Md.) in PBS containing 0.1% Tween 20 for 1 hour at room temperature with shaking.
(§2) Test samples were prepared by separately mixing soluble Met (2 nM, 0.256 μg/ml) with different concentrations of a particular antibody to HGF being tested. The concentrations tested were: 667 nM, 223 nM, 74.1 nM, 24.7 nM, 8.2 nM, 2.7 nM, 0.91 nM, 0.30 nM, 0.10 nM, and 0.034 nM. A volume of 100 μl of a test sample was added to each well of the plates. The plates were then incubated at 4° C. overnight and then washed 4 times with PBS containing 0.1% Tween 20. Next, 100 μl per well of Biotinylated anti-cMetR antibody (Cat#: BAF358, R&D Systems Inc., Minneapolis, Minn.) at 2 μg/ml, was added. […] The plates were then incubated for 2 hours with shaking, and were washed 4 times with PBS containing 0.1% Tween 20. Eu-streptavidin (1:1000 dilution in Assay buffer) (Cat#1244-360, Wallac Inc., Gaithersburg, Md.) was added and the plates were shaken at room temperature for 1 hour. The plates were then washed 4 times with PBS containing 0.1% Tween 20. Next, 100 μl of enhancement buffer (Wallac Inc., Cat#: 1244-105, Gaithersburg, Md.) was added. After at least for 5 minutes, the plates were read using Europium method on Victor 2 (1420 Multilabel Counter, Wallac Inc., Gaithersburg, Md.).
(§3) Percent inhibition of Met binding to HGF (i.e. neutralization) was calculated and IC₅₀ values were determined using the 4 parameter fit equation Excelfit, Version 2.0.6, (Microsoft Inc, Seattle, Wash.). In the presence of the antibodies to HGF discussed in Examples 6, Met binding to HGF was neutralized.

The target is the same in experiment [6]. The experiment is described as follows: neutralization ELISA (right table): inhibition of the binding of soluble Met (2 nM) to plate-coated HGF, detected with biotinylated anti-cMetR antibody and Eu-streptavidin; column head 'IC50 IP (nM)'. On the procedure:
as §1, §2, §3

T1 sequence (P14210 32-728 limits assumed): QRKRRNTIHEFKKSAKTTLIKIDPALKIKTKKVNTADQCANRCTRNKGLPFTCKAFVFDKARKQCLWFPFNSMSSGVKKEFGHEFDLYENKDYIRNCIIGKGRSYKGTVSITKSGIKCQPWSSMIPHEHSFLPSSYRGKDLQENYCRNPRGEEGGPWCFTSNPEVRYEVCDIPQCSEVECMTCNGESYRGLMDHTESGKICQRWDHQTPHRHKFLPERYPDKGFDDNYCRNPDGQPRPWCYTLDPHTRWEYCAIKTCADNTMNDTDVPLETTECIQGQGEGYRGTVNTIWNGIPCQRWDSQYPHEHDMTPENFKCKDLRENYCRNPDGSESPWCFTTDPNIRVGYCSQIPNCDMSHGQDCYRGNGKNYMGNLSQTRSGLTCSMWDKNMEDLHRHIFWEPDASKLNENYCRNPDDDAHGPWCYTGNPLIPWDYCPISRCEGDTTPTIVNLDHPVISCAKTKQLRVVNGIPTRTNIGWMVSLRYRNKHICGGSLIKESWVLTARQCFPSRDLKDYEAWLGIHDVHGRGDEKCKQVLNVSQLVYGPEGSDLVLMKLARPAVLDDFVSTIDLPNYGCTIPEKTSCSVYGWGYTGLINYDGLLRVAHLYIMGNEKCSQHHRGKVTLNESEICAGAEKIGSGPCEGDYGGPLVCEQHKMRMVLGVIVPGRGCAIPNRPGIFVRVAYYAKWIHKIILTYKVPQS

B1: antibody 1.74.3 (antibody, human IgG2, kappa, V domains shown)
VH: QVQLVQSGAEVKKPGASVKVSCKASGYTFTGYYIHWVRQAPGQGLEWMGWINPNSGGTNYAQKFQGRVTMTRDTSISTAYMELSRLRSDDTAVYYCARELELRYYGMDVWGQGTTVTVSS
VL: DIQMTQSPSSLSASVGDRVTITCRASQSINSDLNWYQQKPGKVPKLLIYVASSLQNGVPSRFSGSGSGTDFTLTISSLQPEDFATYYCQRSYSTPPTFGPGTKVDIKR
notes: also called 1.74.1; 1.74.2
With B1, the “IC50, inhibition of growth/survival of U-87 MG cells” value in experiment [1] was under 100 nM. In experiment [2], this molecule returned a dissociation constant Kd of about 0.36 nM, an off-rate constant (koff) of 4.7e-05 s⁻¹ and an association rate constant (kon) of 130000 M⁻¹ s⁻¹. This molecule came in with a dissociation constant (Kd) in experiment [3] of 0.041 nM. In addition, in experiment [4], the binding result was “no binding”. The same molecule registered a half-inhibitory concentration (IC50) in experiment [5] of 3.7 nM. Moreover, the IC50 in experiment [6] came out at 2.31 nM.

In general, Kd refers to the constant that tells how readily two partners part at equilibrium. Broadly, the koff is the first-order rate constant of dissociation. Read a low koff as a long-lived complex. As usually defined, the kon is the second-order rate constant of association. Low values mean slow association, high ones fast association. As usually defined, the IC50 is the concentration that gives 50% inhibition. A higher IC50 goes with a need for much substance.

These data come from patent US20140154243A1 (Amgen, published 2014).
